These are literature values, as cited in patent publication US7452531B2, “Compositions and methods for tumor-targeted delivery of effector molecules” (Vion Pharmaceuticals, Inc., priority 1999, dated 2008).

This data set deals with primary tumors. To be noted: 100 mg/kg/day.

Turning to angiostatin, the toxic side effects result is “without toxic side effects” and the tumor growth result was “strong inhibition of tumor growth”.
